Our source for the fold increase of binding in the presence of protamine values is patent US20160272689A1.

This assay has as its target Fc-tagged extracellular domain of mouse RPTPσ (wild type) (mouse) (UniProt B0V2N1). The experiment in a line: ELISA: Fc-tagged RPTPσ (2 µg/ml) on protein G plates; biotinylated aggrecan 5 µg/ml preincubated with protamine 0-5 µg/ml; streptavidin-HRP, A450. (ELISA stands for enzyme-linked immunosorbent assay.)

Fc-tagged extracellular domain of mouse RPTPσ (wild type) (mouse), sequence (B0V2N1 30-1257): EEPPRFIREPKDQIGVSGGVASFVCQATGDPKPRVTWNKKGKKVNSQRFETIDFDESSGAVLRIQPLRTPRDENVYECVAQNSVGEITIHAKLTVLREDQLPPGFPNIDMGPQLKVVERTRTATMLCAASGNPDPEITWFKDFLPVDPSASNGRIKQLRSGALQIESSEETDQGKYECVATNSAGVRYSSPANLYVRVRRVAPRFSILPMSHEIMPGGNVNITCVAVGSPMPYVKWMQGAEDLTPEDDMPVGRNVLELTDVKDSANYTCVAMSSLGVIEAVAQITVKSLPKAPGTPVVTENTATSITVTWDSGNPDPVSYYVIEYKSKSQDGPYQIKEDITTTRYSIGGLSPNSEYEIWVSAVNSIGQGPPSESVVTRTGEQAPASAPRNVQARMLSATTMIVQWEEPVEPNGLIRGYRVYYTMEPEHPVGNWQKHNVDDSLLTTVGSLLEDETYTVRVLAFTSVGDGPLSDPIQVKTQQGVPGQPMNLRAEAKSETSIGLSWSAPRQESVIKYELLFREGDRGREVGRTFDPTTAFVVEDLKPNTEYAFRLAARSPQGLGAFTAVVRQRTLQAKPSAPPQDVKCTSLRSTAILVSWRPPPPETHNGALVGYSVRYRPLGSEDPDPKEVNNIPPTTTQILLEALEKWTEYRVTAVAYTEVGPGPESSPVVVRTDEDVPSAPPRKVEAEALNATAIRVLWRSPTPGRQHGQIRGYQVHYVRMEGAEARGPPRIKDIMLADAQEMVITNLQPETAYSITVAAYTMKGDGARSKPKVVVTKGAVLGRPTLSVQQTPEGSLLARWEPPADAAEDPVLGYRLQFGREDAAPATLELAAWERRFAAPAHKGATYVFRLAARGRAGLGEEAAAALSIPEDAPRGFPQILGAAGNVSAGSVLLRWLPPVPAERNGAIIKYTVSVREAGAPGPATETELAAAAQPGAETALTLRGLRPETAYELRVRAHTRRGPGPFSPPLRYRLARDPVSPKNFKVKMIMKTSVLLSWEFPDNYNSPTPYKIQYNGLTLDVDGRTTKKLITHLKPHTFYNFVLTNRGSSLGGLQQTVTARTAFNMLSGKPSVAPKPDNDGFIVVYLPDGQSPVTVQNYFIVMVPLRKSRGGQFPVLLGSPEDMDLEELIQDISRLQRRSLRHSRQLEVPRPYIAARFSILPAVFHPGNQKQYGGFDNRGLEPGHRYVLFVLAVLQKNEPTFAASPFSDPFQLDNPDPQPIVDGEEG
biotinylated bovine aggrecan, P13608 17-2364 (ligand; biotinylated (sites not stated); natural chondroitin sulphate side chains of the proteoglycan), sequence (P13608 17-2364 limits assumed): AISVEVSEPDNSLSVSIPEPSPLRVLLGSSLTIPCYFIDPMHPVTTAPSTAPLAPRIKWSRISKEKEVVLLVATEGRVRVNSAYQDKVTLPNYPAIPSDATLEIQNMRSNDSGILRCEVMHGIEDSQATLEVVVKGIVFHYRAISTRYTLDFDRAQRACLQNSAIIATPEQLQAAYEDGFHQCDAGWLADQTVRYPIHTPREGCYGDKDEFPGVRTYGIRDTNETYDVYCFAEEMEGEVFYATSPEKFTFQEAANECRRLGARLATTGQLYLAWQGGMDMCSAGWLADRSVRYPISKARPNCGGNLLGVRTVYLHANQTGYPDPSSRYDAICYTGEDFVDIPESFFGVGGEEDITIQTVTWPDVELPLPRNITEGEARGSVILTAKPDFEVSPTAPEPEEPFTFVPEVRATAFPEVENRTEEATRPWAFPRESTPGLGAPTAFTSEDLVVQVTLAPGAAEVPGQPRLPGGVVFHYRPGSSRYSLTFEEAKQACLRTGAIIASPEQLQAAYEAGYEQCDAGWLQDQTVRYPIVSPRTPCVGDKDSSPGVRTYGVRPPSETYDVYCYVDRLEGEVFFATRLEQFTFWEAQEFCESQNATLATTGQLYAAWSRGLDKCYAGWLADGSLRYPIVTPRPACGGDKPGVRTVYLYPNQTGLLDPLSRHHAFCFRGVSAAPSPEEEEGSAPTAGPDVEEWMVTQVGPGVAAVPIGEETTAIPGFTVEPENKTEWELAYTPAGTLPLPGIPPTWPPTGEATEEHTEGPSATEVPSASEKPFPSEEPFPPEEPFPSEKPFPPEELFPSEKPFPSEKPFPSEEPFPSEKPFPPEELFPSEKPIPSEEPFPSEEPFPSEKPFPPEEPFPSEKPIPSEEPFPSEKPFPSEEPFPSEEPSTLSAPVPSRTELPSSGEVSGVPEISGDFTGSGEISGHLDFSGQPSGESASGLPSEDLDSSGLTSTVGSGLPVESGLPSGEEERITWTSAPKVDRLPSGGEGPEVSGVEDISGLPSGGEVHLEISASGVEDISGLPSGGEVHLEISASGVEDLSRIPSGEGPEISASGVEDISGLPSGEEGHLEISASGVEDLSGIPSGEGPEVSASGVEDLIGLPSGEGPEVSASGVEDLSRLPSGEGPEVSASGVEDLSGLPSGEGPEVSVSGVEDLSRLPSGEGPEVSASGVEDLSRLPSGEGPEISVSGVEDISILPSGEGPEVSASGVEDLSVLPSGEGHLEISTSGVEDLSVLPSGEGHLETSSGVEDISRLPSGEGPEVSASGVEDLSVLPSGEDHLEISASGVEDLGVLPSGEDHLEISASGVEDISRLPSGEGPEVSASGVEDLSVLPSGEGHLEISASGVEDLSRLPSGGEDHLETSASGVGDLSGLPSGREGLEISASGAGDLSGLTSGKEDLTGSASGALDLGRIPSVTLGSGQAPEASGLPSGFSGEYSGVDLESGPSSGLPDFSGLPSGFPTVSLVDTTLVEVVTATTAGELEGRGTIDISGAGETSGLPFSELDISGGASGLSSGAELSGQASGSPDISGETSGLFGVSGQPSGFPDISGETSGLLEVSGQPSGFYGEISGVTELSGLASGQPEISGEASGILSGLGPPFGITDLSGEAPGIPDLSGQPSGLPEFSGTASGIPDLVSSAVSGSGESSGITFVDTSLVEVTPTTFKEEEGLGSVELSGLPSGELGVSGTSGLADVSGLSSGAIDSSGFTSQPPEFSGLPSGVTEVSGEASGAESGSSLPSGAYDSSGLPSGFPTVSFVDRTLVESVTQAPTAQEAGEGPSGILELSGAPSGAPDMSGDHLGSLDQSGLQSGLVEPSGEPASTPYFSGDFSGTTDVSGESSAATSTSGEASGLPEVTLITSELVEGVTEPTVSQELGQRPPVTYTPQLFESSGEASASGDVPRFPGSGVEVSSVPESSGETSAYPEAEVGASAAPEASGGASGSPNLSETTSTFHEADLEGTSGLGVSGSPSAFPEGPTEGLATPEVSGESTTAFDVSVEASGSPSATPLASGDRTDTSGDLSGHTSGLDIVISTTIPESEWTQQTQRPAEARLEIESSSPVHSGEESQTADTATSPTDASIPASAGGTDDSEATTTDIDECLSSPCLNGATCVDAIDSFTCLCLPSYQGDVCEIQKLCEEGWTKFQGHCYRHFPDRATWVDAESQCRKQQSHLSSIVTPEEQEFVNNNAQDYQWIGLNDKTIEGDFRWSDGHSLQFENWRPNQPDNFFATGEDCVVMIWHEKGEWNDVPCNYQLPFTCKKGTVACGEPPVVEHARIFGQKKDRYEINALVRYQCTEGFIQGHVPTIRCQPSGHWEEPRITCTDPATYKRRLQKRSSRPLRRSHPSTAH

On to “biotinylated bovine aggrecan, P13608 17-2364 (ligand; biotinylated (sites not stated); natural chondroitin sulphate side chains of the proteoglycan)”, for which the fold increase of binding in the presence of protamine came to 2 fold.
